Data from paper PMC11617104 (Molecular Biology of the Cell, 2024).

Columns and labels:
[1] = biological target: G3BP1 NTF2L domain (residues 1-139), V11A (UniProt Q13283 1-139, V11A); assay: differential scanning fluorimetry
[2] = biological target: G3BP1 NTF2L domain (residues 1-139), wild type (UniProt Q13283 1-139); assay: differential scanning fluorimetry
Sequence of G3BP1 NTF2L domain (residues 1-139), wild type (Q13283 1-139): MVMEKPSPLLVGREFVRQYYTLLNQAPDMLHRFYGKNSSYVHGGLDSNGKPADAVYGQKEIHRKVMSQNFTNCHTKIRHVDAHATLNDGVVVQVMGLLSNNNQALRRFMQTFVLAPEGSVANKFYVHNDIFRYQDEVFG

Sequence of G3BP1 NTF2L domain (residues 1-139), V11A (Q13283 1-139 V11A): as the sequence (Q13283 1-139) above, with V11A counted along it

B1: Caprin-1 peptide (residues 356-386) (peptide)
peptide: RQRVQDLMAQMQGPYNFIQDSMLDFENQTLD
For B1, the “thermal shift (ΔTm)” value [1] was 1 to 1.5 °C and the “thermal shift (ΔTm) at 50 µM and 100 µM Caprin-1 peptide” value [2] was about 3 °C.
